Assay results as given in patent US20220372549A1, “Thermally Responsive Conjugates” (MIP Diagnostic Limited, priority 2019, published 2022).

Key:
[1] = test system: pyrophosphatase (PPase); conditions: cited from earlier work
[2] = test system: UltraScript 2.0 Reverse Transcriptase; conditions: 150 ng conjugate, RTase 324 nM, 30 min at 25, 43, 55 and then 35° C.; loss of product peak
Description: The reaction was performed using the UltraScript 2.0 Reverse Transcriptase from PCR Bio (UK), according to the instructions of the manufacturer. General conditions were, for a 20 μl total reaction volume:
RNA=5 μg template plus random hexamer primers, in PCR Bio buffer mix.
Individual reaction vials were kept at the set temperature for 30 min and the reaction allowed to proceed. The temperatures used were 25° C., 43° C., 55° C. and 35° C., the latter being done after the 55° C. step. After each incubation, 1-2 μl of cDNA product was taken for qPCR amplification and quantification. Inhibition detected by observing loss of product peak.

Substance | optimum temperature [1] | RTase inhibition, thermal reversibility [2]
pyrophosphatase [unconjugated free enzyme] | 45 °C | 
zidovudine-poly-N-isopropylmethacrylamide |  | inhibition was reversible
